This series is described as follows: yeast display, Sf9 membrane polyspecificity reagent, FACS + sequencing; frameworks hold sequencing errors. In short, it runs like this: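 A nanobody's polyreactivity label depends on the gate it was sorted from. Yeast display cells were stained with 10% biotinylated, detergent-solubilized Sf9 membrane reagent for 1 hour at 4 °C, enriched on streptavidin microbeads and sorted by FACS. The low and high (top ~1%) gates were set on anti-HA fluorescence for expression and streptavidin fluorescence for reagent binding.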
For “QVQLVESGGGLVQAGGSLRLSCAASGFTYDNYAMGWYRQAPGKERELVAAIRRSGSRTYYPDSVKGRFTISRDNAKNTVYLQMNSLKPEDTAVYYCAAVWYRLYGYCGQGTQVTVSS”, the “polyreactivity (PSR sort gate)” value is “low polyreactivity”.

Consider “QVQLVESGGGLVQAGGSLRLSCAASGFIFRQYAMGWYRQAPGKERELVAAISVGGGRTYYADSVKGRFTISRDNAKNTVYLQMNSLKPEVTAVYYCAASNWHSRGSGEYYWGQGTQVTVSS”, for which the “polyreactivity (PSR sort gate)” value is recorded as “high polyreactivity”.

For the sequence “QVQLEESGGGLVQAGGSLRLSCAASGTFVTYMGWYRQAPGKERELVAAIRNGGSTNYADSVKGRFTISRDNAKNTVYLQMNSLKPEDTAVYYCAARVTYSRGYRGGSRTKYDYWGQGTQVTVSS”, the “polyreactivity (PSR sort gate)” value was “low polyreactivity”.

As to “QVQLVESGGGLVQAGGSLRLSCAASGFIRTYAMGWYRQAPGKERELVAAITSSGGRTYYADSVKGRFTISRDNAKNTVYLQMNSLKPEDTAVYYCAAGLGRYLRYNYWGQGTQVTVSS”, the “polyreactivity (PSR sort gate)” value was “high polyreactivity”.

For the sequence “QVQLVESGGGLVQAGGSLRLSCAASGSTFDVYTMGWYRQAPGKERELVATISGDDGSTYYADSVKGRFTISRDNAKNTVYLQMNSLKPEDTAVYYCAADYGGFPNYYSTGDYWGQGTQVTVSS”, the “polyreactivity (PSR sort gate)” value is on record as “low polyreactivity”.

In the case of “QVQLVESGGGLVQAGGSLRLSCAASGITFGDNVKGWYRQAPGKERELVAAISRIGDDTYYADSVKGRFTISRDNAKNTVYLQMNSLKPEDTAVYYCAAEYIYYIWSSYIDWDYYWVQGTQVTVSS”, the “polyreactivity (PSR sort gate)” value is reported as “low polyreactivity”.

Turning to “QVQLVESGGGLVQAGGSLRLICAASGFIFITNAMGWSRQAPGKERELVAAITSSDGNTYYADSVKGRFTISRDNAKNTVYLQMNSLKPEDTAVYYCADDARTKSYVRLYDYWGQGTQVTVSS”, the “polyreactivity (PSR sort gate)” value was “low polyreactivity”.

In the case of “QVQLVESGGGLVQAGGSLRLSCAASGSTFVKYAMGWYRQAPGKERELVAAITDGGGGTFYADSVKGRFTISRDNGLNTVYLQMNSLNPEDTAVFYCNVGVSSAEDFDYWGQGTQVTVSS”, the “polyreactivity (PSR sort gate)” value is reported as “low polyreactivity”.

Turning to “QVQLVESWGGLVQAGGSLRLSCAASGRTFYSNAMGWYRQARGNERELVAAISRSGGTTYYADSVKGRFTISRDNAKNTVYLLMNSLKPEDTAVYYCNTLRYGTTGKYDYWGQGTQVTVSS”, the “polyreactivity (PSR sort gate)” value was “high polyreactivity”.

As for “QVQLVESGGCLVQAGGSLRLSCAASGSTFKTYTMGWYRQAPGKERELVAAITWSGGRTYYADSGKGRFTISRDNAKNTVYLQMNSLKPEDTAVYYCAADWGEEYTRDDYCGQGTQVTVSS”, the “polyreactivity (PSR sort gate)” value is recorded as “low polyreactivity”.

For “QVQLVESGGGLVQAGGSLRLSCAASGRIFRYNAMGWYRQAPGKERELVAAITRSGGRTYYADSVKGRFTISRDNAKYTVYLQMNSLKPEDTAVYYCAADKYPSSPYVGDVDYWGQGTQVTVSS”, the “polyreactivity (PSR sort gate)” value is listed as “high polyreactivity”.

Turning to “QVQLVESGGGLVQAGGSLRLSCAASGSIFVHYAMGWYRQAPGKERELVAAISRSGGSTYYADSVKGRFTISRDNAKNTFYLQMNSLKPEDTAVYYCAADSGYLSPYDYWGHGTQVTVSS”, the “polyreactivity (PSR sort gate)” value is given as “low polyreactivity”.

With “QVQLVESGGGLFQAGGSLRLSCAASGSTSIYNAMGWYRQAPGKERELVAAIDVRGGGTYADSVKGRFTISRDNAKNTVYLQMNSMKPEDTAVYYCNADYARYPNGWFRIVGSGYWGQGTQVTVSS”, the “polyreactivity (PSR sort gate)” value is reported as “low polyreactivity”.

Take “QVQLVESGGGLVQAGGSLRLSCAASGSIFNYYAMGWYRQAPGKEREFVADISGSGSSTYYADSVKGRFTISRDNAKNTVYLQMNSLKPEDTAVYYCNAEYYWGVGYYPYSDYGYWGQGTQVTVSS”: the “polyreactivity (PSR sort gate)” value is “low polyreactivity”.

As to “QVQLVESGGGLVQAGGSLRLSCAASGSTFYGYAMGWYRQAPGKERELVAVISRSGGSTYYADSVKGRFTISRDNAKNTVYLQMNILKPEDTAVYYCNARWSFSYTVWVDSYWGLDDYWGQGTQVTVSS”, the “polyreactivity (PSR sort gate)” value is given as “high polyreactivity”.

On to “QVQLVESGGGLVQAGGSLRLSCAASGSIFAYNAMGWYRQAPGKEREFVAAISLSGGRTYYADSVKGRFTISRDNAKNTVYLQMNSLKPEDTAVYYCATDGIRLTRHRDYDYWGQGTQVTVSS”, for which the “polyreactivity (PSR sort gate)” value is given as “low polyreactivity”.

The values are drawn from the nanobody polyreactivity screen of Harvey et al. (2022).
